Data published in PMC8709496, “Highly Active Thermophilic L-Asparaginase from Melioribacter roseus Represents a Novel Large Group of Type II Bacterial L-Asparaginases from Chlorobi-Ignavibacteriae-Bacteroidetes Clade” (International Journal of Molecular Sciences, 2021).

Substrate: NC(=O)C[C@H](N)C(=O)O
Experiment: purified protein
Type: biochemical, Melioribacter roseus
Conditions: borate buffer 0.025 M, pH 9.3, 70 °C

B1: MrAII (type II L-asparaginase from M. roseus) (Melioribacter roseus P3M-2) (protein)
chain: MKNILIIFTGGTFSMKIDRETNSAVPYYHGEELLKIIPEADKKANISVYEFGNYPGPHMTPELMLELSEIVKKYINQNDTDGIIITHGTDTLEETAYFLDLTVKTEKPIVVIGAMKTSSEPDWDGPKNLLDAISIINNPNSGNMGVLVCLNGEINAASEVTKTHTEDIETFHSLDFGSLGFVENDRVIFNRLPRKLETFETAKINSNVDLIKVYAGMNEKFFKFSADSGADGLVVEAMGVGNVPPKAFEGIKYVIEKGIPVVLVSRCPAGETLDIYGYEGAGKWLKKAGVIFSDYLNGQKARIKLIVCLGITNEIAKLRSMFEDEQ
notes: synthetic native gene (981 nt, printed as 327 aa) in pET-28a(+) NheI/SalI, E. coli BL21(DE3); Q-Sepharose purified
B1 showed a Km of 1400 µM.
